The DeepSol protein solubility set

Test: soluble on expression in E. coli; label from the status in PepcDB or PDB records

Soluble on expression in E. coli, not soluble:
MGSDKIHHHHHHMTVAVDLPIPAKLVPVFTKENVRYRGAHGGRGSAKTRTFAMMSAVRAYQAAESGTSGVILCAREFMNSLEESSMEEVKQAIRSIPWLDDYFEIGEKYIRTKNRLVNYVFCGLRHNLDSIKSKARILLAWIDEAESVSETAWKKLRPTVRESGSEIWVTWNPEKDGSATDKRLRKKPPKSSIIVEMNYSDNPWFPDVLEEERQEDLESLDHSDYAWIWEGAYLENSEKQVLANKYKIESFPDDLWMQADRLLFGADFGFARDPSTLLRMFILDNCLYIDREAYSVGVELDHMPAFYDQVPESRKWPIKADSARPETISYLKRQGFNISAAKKWQGSVEDGITFLRGFKKIIIHPRCKETAKEARLYSYKVDRITGEVLPIIEDAHNHCWDAARYGLDGYIKGRTTVWDIM
MSSSTSPFLRAISRLIKASFFALSKFSLNCMYKSIQAELLKITYLAFMVKAMIFIPKEKHVYSFGPDMKEVARAKPGEIIVFETLDALGGQIRSEEDTVEKIDFSRVNPATGPVYIEGAEKGKILKVKILEIEVNDRGVIVTAPGAGVLGDLVKAPKTKVCRIANGFVQFGEFKIPVRPMIGVIGVASPEEIPTGTPGRHGGNMDTNLITEGSTVYFPIFKDGAYLALGDLHAVMADGEVCVSACEVSGKVTVKTEVLSGSIEWPIVETSDAYYILVSEEDLEDAVREAVKQGVDILRRANELSWDEAYMLASLIMDVQISQLVDPRKTVRVRIPKQYLKMSLFLEHHHHHH
MPESIPQFYKRIQSCDLQSDTTYSKEKPYFNIFSRQCNFGTVQFSYREFYKVTLIIGVGKLYYADKWILVNRPALLFSNPLVPYAWESISEEQKGVFCIFNERFVQSEEKNGSLANTPLFKVTGDKVFFLDDTQVAKVLDIYTQMQEENQSDYVNKFDVLRCYLHLLIHTALKMQDSNRYESHLNASQRITELFIELLDRQFPIDYPHAVLNLRTPADYANRLSVHVNHLNKVIKDTTGKTTSEMIAERIIKECTQYLLHSNLSISEIAYSLGFETVSYFSKFYRKHTGKSPSEVRERTII
MFRNVAELVALAEKDSIKIAEVMIRQEVEVSGRSREEVIAQMDHHLSVMERAVERGLEGVVSRSGLTGGDAVRMQRYIEGGRFLSGETILDAVSKAMATNEVNAAMGVICATPTAGAAGVVPGTLFAVKEKLRPTRMEMIEFLFTAGAFGYVVANNASISGAAGGCQAEVGSAAGMAAAALVELAGGTPGQAAEAMAIALKNMLGLVCDPVAGLVEVPCVKRNAMGAANAMIAADMALAGIKSRIPCDEVIEAMYRIGAAMPVALKETAQGGLAATPTGRAIAARIFGASAASK
IKDFNYRIGFNLYDSQSEITKFNNETNLLGTYRKGQKIGEIWGYVTDRFYREDDFNADGTLKEGIPIPKGVGKVYPGDILYKNFDDDASTIWSGKGTADDPGDQRIIGNSTPRFHYGINAGLSWKGFDLSVFLRGVGKRDFWRTDQIAWPTGTWGSLFKETLDFWTPEHTDAYFPRVYANNGVNTASNRWKQTKYLANAAYLKLQNITLSYTLPKTWAKQICFDEVKVFFSGENLHTWDHLPEGLESDMLSKGAWEYPFMKKFSLGFNVTF

Soluble on expression in E. coli, soluble:
ADERLQFTATTLSGAPFDGASLQGKPAVLWFWTPWCPFCNAEAPSLSQVAAANPAVTFVGIATRADVGAMQSFVSKYNLNFTNLNDADGVIWARYNVPWQPAFVFYRADGTSTFVNNPTAAMSQDELSGRVAALTS
GKIILFEDVEFGGKKLELETSVSDLNVHGFNDIVSSIIVESGTWFVFDDEGFSGPSYKLTPGKYPNPGSWGGNDDELSSVKQQ
MELKKIVEAILFSSSEPVDARELRKITGKDKVEILNAIGELIKDYESRDTSIEIIKVGEKYLMRVKPQYAEYVERFTVREFDRGTLRTLAVIALKQPITLAKVAKIRGNKCYEHVKKLQERGLVKAEKKGRSTILTTTEEFATYFGLDSAEPEKIKEALKGYLEAE
MGHHHHHHSHMAGAAEDARALFRAGVCAALEAWPALQIAVENGFGGVHSQEKAKWLGGAVEDYFMRNADLELDEVEDFLGELLTNEFDTVVEDGSLPQVSQQLQTMFHHFQRGDGAALREMASCITQRKCKVTATALKTARETDEDEDDVDSVEEMEVTATNDGAATDGVCPQPEPSDPDAQTIKEEDIVEDGWTIVRRKK
MTSITAIFFDLDGTLVDSSIGIHNAFTYTFKELGVPSPDAKTIRGFMGPPLESSFATCLSKDQISEAVQIYRSYYKAKGIYEAQLFPQIIDLLEELSSSYPLYITTTKDTSTAQDMAKNLEIHHFFDGIYGSSPEAPHKADVIHQALQTHQLAPEQAIIIGDTKFDMLGARETGIQKLAITWGFGEQADLLNYQPDYIAHKPLEVLAYFQ
